Data taken from publication PMC4191399.
Positions count from the first letter of the chain named. pKd: −log10 of the molar value.

Columns and labels:
Test in all cases: fluorescence polarization
Settings in all cases: internal 6-carboxyfluorescein in backbone between U12 and C13 (central tetraloop bases); 25 mM MOPS pH 7.4, 150 mM KCl, 2 mM DTT, 2 mM MgCl2, 0.01% Triton X-100, 1 nM RNA, room temperature, 1 h
[1] = target: T1, RIG-I Q784A Q784A (Homo sapiens) (UniProt O95786)
T1 sequence: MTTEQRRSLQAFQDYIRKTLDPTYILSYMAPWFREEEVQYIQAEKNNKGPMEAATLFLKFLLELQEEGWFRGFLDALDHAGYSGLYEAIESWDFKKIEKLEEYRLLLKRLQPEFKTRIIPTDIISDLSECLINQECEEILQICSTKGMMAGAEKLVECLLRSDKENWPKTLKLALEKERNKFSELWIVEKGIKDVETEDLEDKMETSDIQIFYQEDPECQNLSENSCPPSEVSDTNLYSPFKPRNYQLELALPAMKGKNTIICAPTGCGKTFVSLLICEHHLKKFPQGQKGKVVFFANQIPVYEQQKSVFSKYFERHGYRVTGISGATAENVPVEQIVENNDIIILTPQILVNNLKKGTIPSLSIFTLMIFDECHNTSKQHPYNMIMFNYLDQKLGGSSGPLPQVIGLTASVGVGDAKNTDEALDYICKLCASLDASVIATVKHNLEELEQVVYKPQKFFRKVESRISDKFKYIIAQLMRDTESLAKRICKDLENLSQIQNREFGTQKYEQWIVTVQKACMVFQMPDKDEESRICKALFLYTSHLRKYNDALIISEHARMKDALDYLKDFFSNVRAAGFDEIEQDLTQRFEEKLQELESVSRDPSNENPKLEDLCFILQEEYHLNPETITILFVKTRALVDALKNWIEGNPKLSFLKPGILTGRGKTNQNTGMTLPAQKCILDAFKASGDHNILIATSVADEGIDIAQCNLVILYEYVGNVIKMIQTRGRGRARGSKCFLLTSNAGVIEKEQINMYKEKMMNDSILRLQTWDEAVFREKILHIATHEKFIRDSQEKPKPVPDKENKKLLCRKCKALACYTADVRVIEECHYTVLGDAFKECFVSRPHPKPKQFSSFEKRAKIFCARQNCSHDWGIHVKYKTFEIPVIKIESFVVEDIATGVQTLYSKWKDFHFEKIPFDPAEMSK

[2] = target: T2, RIG-I R791A R791A (Homo sapiens) (UniProt O95786)
T2 sequence: T1 sequence with A784Q, R791A

RIG-I WT (Homo sapiens) = target: T3, RIG-I WT (Homo sapiens) (UniProt O95786)
T3 sequence: T1 sequence with A784Q

GGACGUACGUUUCGACGUACGUCC [5'OH10L-F]
pKd [1]: 7.62
pKd [2]: 7.30
pKd (RIG-I WT (Homo sapiens)): 7.60
